These are literature values, as cited in patent US20030092000.

Common to all, as to conditions: method not stated
For data set [1], the system named is FAD 5A (designed three-finger ZFP) (synthetic).
The test system of data set [2] is FAD 3A (designed three-finger ZFP) (synthetic).
Data set [3] concerns FAD 3B (designed three-finger ZFP) (synthetic).
Data set [4] relates to FAD 2A (designed three-finger ZFP) (synthetic).
Data set [5] deals with FAD 1A (designed three-finger ZFP) (synthetic).
Data set [6] deals with FAD 1B (designed three-finger ZFP) (synthetic).
Data set [7] concerns FAD 4A (designed three-finger ZFP) (synthetic).
The subject of data set [8] is FAD 4B (designed three-finger ZFP) (synthetic).

On to “TAGGTGGTGA (double strand) [FAD 5 target]”, for which the Kd (as a rule, the concentration at which binding is half-saturated) in data set [1] was 10 nM.

“GTTGAGGAAG (double strand) [FAD 3 target]”: the Kd in data set [2] and in data set [3] was 100 nM throughout. With “GTCGTGTGGA (double strand) [FAD 2 target]”, in data set [4], the Kd is 100 nM. Take “GAGGTAGAGG (double strand) [FAD 1 target]”: the dissociation constant (Kd) in data set [5] and in data set [6] was 10 nM each time.

Turning to “GAGGTGGAAG (double strand) [FAD 4 target]”, the Kd in data set [7] is 10 nM; in data set [8], 2 nM.
